Test in all cases: Ki table, method not stated
For one assay, the target named is BCL-2 (UniProt P10415 1-217, limits assumed).
In the next assay the target is BCL-XL (UniProt Q07817 1-209).
The target in a further assay is T1, MCL-1 (UniProt Q07820 172-327, limits assumed).
T1 construct: also called Myeloid cell leukemia 1

Positions of bridges follow the written chain, without caps; N, C: chain ends. Non-standard residues stand in square brackets, D forms with d. hCha = N[C@@H](CCC1CCCCC1)C(=O)O; hPhe = N[C@@H](CCc1ccccc1)C(=O)O; R8 = C=CCCCCCC[C@@](C)(N)C(=O)O; αMeD = C[C@](N)(CC(=O)O)C(=O)O; S5 = C=CCCC[C@](C)(N)C(=O)O

Sequence of BCL-XL (Q07817 1-209): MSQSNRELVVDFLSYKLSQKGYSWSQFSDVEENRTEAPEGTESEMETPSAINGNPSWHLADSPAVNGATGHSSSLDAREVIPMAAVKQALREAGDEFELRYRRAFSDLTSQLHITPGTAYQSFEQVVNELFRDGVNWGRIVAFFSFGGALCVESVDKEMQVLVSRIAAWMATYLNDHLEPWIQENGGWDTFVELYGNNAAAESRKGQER
T1 sequence (Q07820 172-327 limits assumed): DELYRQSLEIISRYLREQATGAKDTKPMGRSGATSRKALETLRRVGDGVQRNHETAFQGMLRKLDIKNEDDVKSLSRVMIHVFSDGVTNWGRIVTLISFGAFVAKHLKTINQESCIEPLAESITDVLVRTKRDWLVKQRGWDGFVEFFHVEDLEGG
Sequence of BCL-2 (P10415 1-217 limits assumed): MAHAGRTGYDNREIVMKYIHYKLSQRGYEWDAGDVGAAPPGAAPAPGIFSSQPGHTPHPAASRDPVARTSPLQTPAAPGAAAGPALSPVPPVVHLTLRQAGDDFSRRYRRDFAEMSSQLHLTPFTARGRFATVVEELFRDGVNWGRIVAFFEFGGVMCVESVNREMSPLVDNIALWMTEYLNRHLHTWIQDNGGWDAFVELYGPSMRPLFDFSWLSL

B1: SEQ ID NO: 1635 (peptide)
peptide: Ac-IAQALR[R8]IGDAFN[S5]YYA-NH2
modifications: staple 7-14
SMILES: CC[C@H](C)[C@H](NC(C)=O)C(=O)N[C@@H](C)C(=O)N[C@@H](CCC(N)=O)C(=O)N[C@@H](C)C(=O)N[C@@H](CC(C)C)C(=O)N[C@@H](CCCNC(=N)N)C(=O)N[C@]1(C)CCCCCCC=CCCC[C@@](C)(C(=O)N[C@@H](Cc2ccc(O)cc2)C(=O)N[C@@H](Cc2ccc(O)cc2)C(=O)N[C@@H](C)C(N)=O)NC(=O)[C@H](CC(N)=O)NC(=O)[C@H](Cc2ccccc2)NC(=O)[C@H](C)NC(=O)[C@H](CC(=O)O)NC(=O)CNC(=O)[C@H]([C@@H](C)CC)NC1=O
notes: also called Ac-IAQALR$r8IGDAFN$YYA-NH2
With B1, the inhibition constant Ki in the assay with BCL-2 was determined as 519 nM; with BCL-XL it was 309 nM.

B2: SEQ ID NO: 1636 (peptide)
peptide: Ac-IAAALR[R8]IGDAFN[S5]YYA-NH2
modifications: staple 7-14
SMILES: CC[C@H](C)[C@H](NC(C)=O)C(=O)N[C@@H](C)C(=O)N[C@@H](C)C(=O)N[C@@H](C)C(=O)N[C@@H](CC(C)C)C(=O)N[C@@H](CCCNC(=N)N)C(=O)N[C@]1(C)CCCCCCC=CCCC[C@@](C)(C(=O)N[C@@H](Cc2ccc(O)cc2)C(=O)N[C@@H](Cc2ccc(O)cc2)C(=O)N[C@@H](C)C(N)=O)NC(=O)[C@H](CC(N)=O)NC(=O)[C@H](Cc2ccccc2)NC(=O)[C@H](C)NC(=O)[C@H](CC(=O)O)NC(=O)CNC(=O)[C@H]([C@@H](C)CC)NC1=O
notes: also called Ac-IAAALR$r8IGDAFN$YYA-NH2
B2: the Ki came out at 319 nM with BCL-2 and 256 nM in the assay with BCL-XL.

B3: SEQ ID NO: 1640 (peptide)
peptide: Ac-IAQALR[R8]IGDAFN[S5]AYA-NH2
modifications: staple 7-14
SMILES: CC[C@H](C)[C@H](NC(C)=O)C(=O)N[C@@H](C)C(=O)N[C@@H](CCC(N)=O)C(=O)N[C@@H](C)C(=O)N[C@@H](CC(C)C)C(=O)N[C@@H](CCCNC(=N)N)C(=O)N[C@]1(C)CCCCCCC=CCCC[C@@](C)(C(=O)N[C@@H](C)C(=O)N[C@@H](Cc2ccc(O)cc2)C(=O)N[C@@H](C)C(N)=O)NC(=O)[C@H](CC(N)=O)NC(=O)[C@H](Cc2ccccc2)NC(=O)[C@H](C)NC(=O)[C@H](CC(=O)O)NC(=O)CNC(=O)[C@H]([C@@H](C)CC)NC1=O
notes: also called Ac-IAQALR$r8IGDAFN$AYA-NH2
For the molecule B3, the results for the Ki in the assay with BCL-2 and with BCL-XL were 804 nM and 472 nM, respectively.

B4: SEQ ID NO: 1638 (peptide)
peptide: Ac-IAQALR[R8]IADAFN[S5]YYA-NH2
modifications: staple 7-14
SMILES: CC[C@H](C)[C@H](NC(C)=O)C(=O)N[C@@H](C)C(=O)N[C@@H](CCC(N)=O)C(=O)N[C@@H](C)C(=O)N[C@@H](CC(C)C)C(=O)N[C@@H](CCCNC(=N)N)C(=O)N[C@]1(C)CCCCCCC=CCCC[C@@](C)(C(=O)N[C@@H](Cc2ccc(O)cc2)C(=O)N[C@@H](Cc2ccc(O)cc2)C(=O)N[C@@H](C)C(N)=O)NC(=O)[C@H](CC(N)=O)NC(=O)[C@H](Cc2ccccc2)NC(=O)[C@H](C)NC(=O)[C@H](CC(=O)O)NC(=O)[C@H](C)NC(=O)[C@H]([C@@H](C)CC)NC1=O
notes: also called Ac-IAQALR$r8IADAFN$YYA-NH2
B4: the inhibitory constant (Ki) amounted to 272 nM in the assay with BCL-2 and 243 nM in the assay with BCL-XL.

B5: SEQ ID NO: 1631 (peptide)
peptide: Ac-IAQALR[R8]IGDAFA[S5]YYA-NH2
modifications: staple 7-14
SMILES: CC[C@H](C)[C@H](NC(C)=O)C(=O)N[C@@H](C)C(=O)N[C@@H](CCC(N)=O)C(=O)N[C@@H](C)C(=O)N[C@@H](CC(C)C)C(=O)N[C@@H](CCCNC(=N)N)C(=O)N[C@]1(C)CCCCCCC=CCCC[C@@](C)(C(=O)N[C@@H](Cc2ccc(O)cc2)C(=O)N[C@@H](Cc2ccc(O)cc2)C(=O)N[C@@H](C)C(N)=O)NC(=O)[C@H](C)NC(=O)[C@H](Cc2ccccc2)NC(=O)[C@H](C)NC(=O)[C@H](CC(=O)O)NC(=O)CNC(=O)[C@H]([C@@H](C)CC)NC1=O
notes: also called Ac-IAQALR$r8IGDAFA$YYA-NH2
Turning to B5, the inhibition constant (Ki) with BCL-2 is 878 nM; in the assay with BCL-XL, 374 nM.

B6: SEQ ID NO: 1656 (peptide)
peptide: IWIAQALXAIGDQFNAYYA
modifications: not fully specified; Ac- at N-terminus; -NH2 at C-terminus; $r8 at 9 and $ at 16 joined by all-carbon crosslinker; Cit (citrulline) at 8
Regarding B6, the results for the Ki with BCL-2 and with BCL-XL were 88.2 nM and 28.8 nM, respectively.

B7: SEQ ID NO: 1629 (peptide)
peptide: Ac-IWIAQELR[R8]IGDEFN[S5]YYARR-NH2
modifications: staple 9-16
SMILES: CC[C@H](C)[C@H](NC(C)=O)C(=O)N[C@@H](Cc1c[nH]c2ccccc12)C(=O)N[C@H](C(=O)N[C@@H](C)C(=O)N[C@@H](CCC(N)=O)C(=O)N[C@@H](CCC(=O)O)C(=O)N[C@@H](CC(C)C)C(=O)N[C@@H](CCCNC(=N)N)C(=O)N[C@]1(C)CCCCCCC=CCCC[C@@](C)(C(=O)N[C@@H](Cc2ccc(O)cc2)C(=O)N[C@@H](Cc2ccc(O)cc2)C(=O)N[C@@H](C)C(=O)N[C@@H](CCCNC(=N)N)C(=O)N[C@@H](CCCNC(=N)N)C(N)=O)NC(=O)[C@H](CC(N)=O)NC(=O)[C@H](Cc2ccccc2)NC(=O)[C@H](CCC(=O)O)NC(=O)[C@H](CC(=O)O)NC(=O)CNC(=O)[C@H]([C@@H](C)CC)NC1=O)[C@@H](C)CC
Consider B7, for which the inhibition constant (Ki) came to 23.5 nM in the assay with BCL-2 and 9.2 nM in the assay with BCL-XL.

B8: SEQ ID NO: 1673 (peptide)
peptide: Ac-IWIAQALA[R8]IGDAFN[S5]YYA-NH2
modifications: staple 9-16
SMILES: CC[C@H](C)[C@H](NC(C)=O)C(=O)N[C@@H](Cc1c[nH]c2ccccc12)C(=O)N[C@H](C(=O)N[C@@H](C)C(=O)N[C@@H](CCC(N)=O)C(=O)N[C@@H](C)C(=O)N[C@@H](CC(C)C)C(=O)N[C@@H](C)C(=O)N[C@]1(C)CCCCCCC=CCCC[C@@](C)(C(=O)N[C@@H](Cc2ccc(O)cc2)C(=O)N[C@@H](Cc2ccc(O)cc2)C(=O)N[C@@H](C)C(N)=O)NC(=O)[C@H](CC(N)=O)NC(=O)[C@H](Cc2ccccc2)NC(=O)[C@H](C)NC(=O)[C@H](CC(=O)O)NC(=O)CNC(=O)[C@H]([C@@H](C)CC)NC1=O)[C@@H](C)CC
Consider B8, for which the results for the Ki with BCL-XL and in the assay with MCL-1 were 386 nM and 73.8 nM, respectively.

B9: SEQ ID NO: 1690 (peptide)
peptide: Ac-IWIAQA[hCha]R[R8]IGDAFN[S5]YYA-NH2
modifications: staple 9-16
SMILES: CC[C@H](C)[C@H](NC(C)=O)C(=O)N[C@@H](Cc1c[nH]c2ccccc12)C(=O)N[C@H](C(=O)N[C@@H](C)C(=O)N[C@@H](CCC(N)=O)C(=O)N[C@@H](C)C(=O)N[C@@H](CCC1CCCCC1)C(=O)N[C@@H](CCCNC(=N)N)C(=O)N[C@]1(C)CCCCCCC=CCCC[C@@](C)(C(=O)N[C@@H](Cc2ccc(O)cc2)C(=O)N[C@@H](Cc2ccc(O)cc2)C(=O)N[C@@H](C)C(N)=O)NC(=O)[C@H](CC(N)=O)NC(=O)[C@H](Cc2ccccc2)NC(=O)[C@H](C)NC(=O)[C@H](CC(=O)O)NC(=O)CNC(=O)[C@H]([C@@H](C)CC)NC1=O)[C@@H](C)CC
notes: also called Ac-IWIAQAhChaR$r8IGDAFN$YYA-NH2
In turn, B9 gave a Ki with MCL-1 of 3.8 nM. In other words, the single-digit nanomolar range.

B10: SEQ ID NO: 1692 (peptide)
peptide: Ac-IWIAQA[hPhe]R[R8]IGDAFN[S5]YYA-NH2
modifications: staple 9-16
SMILES: CC[C@H](C)[C@H](NC(C)=O)C(=O)N[C@@H](Cc1c[nH]c2ccccc12)C(=O)N[C@H](C(=O)N[C@@H](C)C(=O)N[C@@H](CCC(N)=O)C(=O)N[C@@H](C)C(=O)N[C@@H](CCc1ccccc1)C(=O)N[C@@H](CCCNC(=N)N)C(=O)N[C@]1(C)CCCCCCC=CCCC[C@@](C)(C(=O)N[C@@H](Cc2ccc(O)cc2)C(=O)N[C@@H](Cc2ccc(O)cc2)C(=O)N[C@@H](C)C(N)=O)NC(=O)[C@H](CC(N)=O)NC(=O)[C@H](Cc2ccccc2)NC(=O)[C@H](C)NC(=O)[C@H](CC(=O)O)NC(=O)CNC(=O)[C@H]([C@@H](C)CC)NC1=O)[C@@H](C)CC
notes: also called Ac-IWIAQAhFR$r8IGDAFN$YYA-NH2
Molecule B10 came in with an inhibitory constant (Ki) with MCL-1 of 7.5 nM.

B11: SEQ ID NO: 1634 (peptide)
peptide: Ac-WIAQALR[R8]IGDAFN[S5]YYA-NH2
modifications: staple 8-15
SMILES: CC[C@H](C)[C@H](NC(=O)[C@H](Cc1c[nH]c2ccccc12)NC(C)=O)C(=O)N[C@@H](C)C(=O)N[C@@H](CCC(N)=O)C(=O)N[C@@H](C)C(=O)N[C@@H](CC(C)C)C(=O)N[C@@H](CCCNC(=N)N)C(=O)N[C@]1(C)CCCCCCC=CCCC[C@@](C)(C(=O)N[C@@H](Cc2ccc(O)cc2)C(=O)N[C@@H](Cc2ccc(O)cc2)C(=O)N[C@@H](C)C(N)=O)NC(=O)[C@H](CC(N)=O)NC(=O)[C@H](Cc2ccccc2)NC(=O)[C@H](C)NC(=O)[C@H](CC(=O)O)NC(=O)CNC(=O)[C@H]([C@@H](C)CC)NC1=O
notes: also called Ac-WIAQALR$r8IGDAFN$YYA-NH2
B11: affinity with BCL-2 was put at a Ki of 410 nM. This lies in the sub-micromolar range.

B12: SEQ ID NO: 1709 (peptide)
peptide: Ac-IWIAQALR[R8]IG[αMeD]AFN[S5]YYA-NH2
modifications: staple 9-16
SMILES: CC[C@H](C)[C@H](NC(C)=O)C(=O)N[C@@H](Cc1c[nH]c2ccccc12)C(=O)N[C@H](C(=O)N[C@@H](C)C(=O)N[C@@H](CCC(N)=O)C(=O)N[C@@H](C)C(=O)N[C@@H](CC(C)C)C(=O)N[C@@H](CCCNC(=N)N)C(=O)N[C@]1(C)CCCCCCC=CCCC[C@@](C)(C(=O)N[C@@H](Cc2ccc(O)cc2)C(=O)N[C@@H](Cc2ccc(O)cc2)C(=O)N[C@@H](C)C(N)=O)NC(=O)[C@H](CC(N)=O)NC(=O)[C@H](Cc2ccccc2)NC(=O)[C@H](C)NC(=O)[C@](C)(CC(=O)O)NC(=O)CNC(=O)[C@H]([C@@H](C)CC)NC1=O)[C@@H](C)CC
B12 gave a Ki with BCL-XL of 15.5 nM. This lies in the double-digit nanomolar range.

B13: SEQ ID NO: 1630 (peptide)
peptide: Ac-WIAQALR[R8]IGDAFN[S5]YYA-NH2
modifications: staple 8-15
SMILES: CC[C@H](C)[C@H](NC(=O)[C@H](Cc1c[nH]c2ccccc12)NC(C)=O)C(=O)N[C@@H](C)C(=O)N[C@@H](CCC(N)=O)C(=O)N[C@@H](C)C(=O)N[C@@H](CC(C)C)C(=O)N[C@@H](CCCNC(=N)N)C(=O)N[C@]1(C)CCCCCCC=CCCC[C@@](C)(C(=O)N[C@@H](Cc2ccc(O)cc2)C(=O)N[C@@H](Cc2ccc(O)cc2)C(=O)N[C@@H](C)C(N)=O)NC(=O)[C@H](CC(N)=O)NC(=O)[C@H](Cc2ccccc2)NC(=O)[C@H](C)NC(=O)[C@H](CC(=O)O)NC(=O)CNC(=O)[C@H]([C@@H](C)CC)NC1=O
notes: as for B11
In the case of B13, the inhibition constant (Ki) in the assay with BCL-2 came to 424 nM; in the assay with BCL-XL it was 213 nM.

B14: SEQ ID NO: 1688 (peptide)
peptide: Ac-IWIAQA[hhL]R[R8]IGDAFN[S5]YYA-NH2
modifications: staple 9-16
notes: also called Ac-IWIAQAhhLR$r8IGDAFN$YYA-NH2
Consider B14, for which the Ki in the assay with BCL-2 worked out at 231 nM; in the assay with BCL-XL, 136 nM.

Broadly, the Ki is the dissociation constant of the complex between target and ligand, obtained from inhibition or displacement. A higher Ki goes with weaker binding.

For the origin of these results see patent US20180273587A1 (AILERON THERAPEUTICS, published 2018).
